Several values for one entry are separate records, joined by “and”; a condition that tells them apart may be missing. Identical values can stand only once.

Data on 5 substances can be found in paper PMC12012487.

The target in experiment [1] is engineered strepII-tagged H77c-derived soluble native-like E1E2 (Hepatitis C virus genotype 1a, isolate H77 (H77c)). Description: mass photometry.
The target in experiment [2] is engineered strepII-tagged H77c-derived soluble native-like E1E2 (hepatitis C virus, strain H77c). Description: mass photometry.

As a reminder, the stoichiometry N is a count of units in the complex or per binding partner. Consider AR3C monoclonal antibody, for which, in experiment [1], the relative abundance of the 1:1 E1E2:Ab complex stood at 60%; the relative abundance of the 2:1 E1E2:Ab complex was determined as 40%; the stoichiometry N was 1 E1E2:Ab and 2 E1E2:Ab.
Take AR4A monoclonal antibody: in experiment [1], the relative abundance of the 1:1 E1E2:Ab complex turned out to be 60%; the relative abundance of the 2:1 E1E2:Ab complex worked out at 40%; the stoichiometry N is 1 E1E2:Ab and 2 E1E2:Ab.
As to “AR4A/AR3C CamX6 hinge bispecific antibody (CrossMab)”, in experiment [2], the stoichiometry N was 1 E1E2:Ab.
Take “AR4A/AR3C IgG1 hinge bispecific antibody”: in experiment [2], the relative abundance of the 2:1 E1E2:Ab complex was determined as 67%, the stoichiometry N is 2 E1E2:Ab, the stoichiometry N (E1E2:Ab (2:2 complex)) was 1 and the stoichiometry N (E1E2:Ab (3:2 complex)) was determined as 1.5.
As for “AR4A/AR3C IgG3C- hinge bispecific antibody (CrossMab)”, the stoichiometry N in experiment [2] was 1 E1E2:Ab.
